Data set [1] has as its target N-acetylneuraminate lyase from Lactobacillus antri (Lactobacillus antri) (UniProt C8P490). The experiment in a line: SEC; gel filtration on Superdex200 10/300 GL in 50 mM phosphate buffer pH 7.0 with 0.15 M NaCl; native mass compared with the subunit mass by HPLC/MS/ESI and SDS-PAGE.
For a further data set, the target named is T1, LaNAL (Limosilactobacillus antri, UniProt C8P490).
T1 construct: gene FC31_GL000711; N-terminal His-tag (pET-28a), E. coli Rosetta 2; nanA gene printed as 828 bp; homotetramer 140 kDa; EC 4.1.3.3
T1 sequence (C8P490 1-305): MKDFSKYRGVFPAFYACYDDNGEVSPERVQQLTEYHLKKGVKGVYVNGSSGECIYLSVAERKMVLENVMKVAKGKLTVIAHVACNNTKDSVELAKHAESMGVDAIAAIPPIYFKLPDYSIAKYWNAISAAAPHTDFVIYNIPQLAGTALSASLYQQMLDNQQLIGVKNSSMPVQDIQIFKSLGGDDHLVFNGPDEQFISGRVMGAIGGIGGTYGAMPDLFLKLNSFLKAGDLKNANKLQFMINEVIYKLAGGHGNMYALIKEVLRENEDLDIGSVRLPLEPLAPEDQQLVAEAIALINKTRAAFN
The experiment in a line: NAD+-coupled ManNAc dehydrogenase assay, […] nm. In kind it is biochemical.

The target in data set [2] is T2, LsNAL (Latilactobacillus sakei, UniProt Q38V37).
T2 construct: gene nanA; N-terminal His-tag (pET-28a), E. coli Rosetta 2; nanA gene 918 bp; homotetramer 140 kDa; EC 4.1.3.3
T2 sequence (Q38V37 1-305): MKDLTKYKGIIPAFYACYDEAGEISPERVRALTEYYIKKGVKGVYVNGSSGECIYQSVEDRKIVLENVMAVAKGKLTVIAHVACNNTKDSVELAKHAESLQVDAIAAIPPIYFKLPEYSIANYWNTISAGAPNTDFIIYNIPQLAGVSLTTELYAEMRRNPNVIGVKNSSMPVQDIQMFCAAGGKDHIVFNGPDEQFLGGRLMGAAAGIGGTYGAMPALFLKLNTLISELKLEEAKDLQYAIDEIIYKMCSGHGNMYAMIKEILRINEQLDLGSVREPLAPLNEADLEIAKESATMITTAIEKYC
The experiment in a line: thermal shift, SYPRO Orange. The data set is classed as binding. The note with it: 5 mM sodium pyruvate; several pHs (4-9).

For data set [3], the target named is T2, LsNAL. The experiment in a line: NAD+-coupled ManNAc dehydrogenase assay, […] nm. The data set is classed as biochemical.
The target in data set [4] is N-acetylneuraminate lyase from Lactobacillus sakei 23K (Lactobacillus sakei 23K) (UniProt Q38V37). The experiment in a line: SEC; gel filtration on Superdex200 10/300 GL in 50 mM phosphate buffer pH 7.0 with 0.15 M NaCl; native mass compared with the subunit mass by HPLC/MS/ESI and SDS-PAGE.
Substrate in data set [5]: CC(=O)C(=O)O
The experiment in a line: Neu5Ac synthesis, HPLC-ELSD. The data set is classed as biochemical, Latilactobacillus sakei. The note with it: co-substrate ManNAc, 20 mM phosphate pH 7.0, 37 C. An excerpt: Neu5Ac synthesis, HPLC-ELSD on LsNAL

Substrate in data set [6]: CC(=O)C(=O)O
The experiment in a line: Neu5Ac synthesis, HPLC-ELSD. The data set is classed as biochemical, Limosilactobacillus antri. The note with it: co-substrate ManNAc, 20 mM phosphate pH 7.0, 37 C. An excerpt:
Neu5Ac synthesis, HPLC-ELSD on LaNAL

The source of these data is article PMC4016182, “First Functional and Mutational Analysis of Group 3 N-Acetylneuraminate Lyases from Lactobacillus antri and Lactobacillus sakei 23K” (PLoS ONE, 2014).

For “N-acetylneuraminate lyase from Lactobacillus antri (from UniProt C8P490 1-305) (enzyme)”, the stoichiometry N in data set [1] worked out at 4.
As for `CC(=O)C(=O)O` [pyruvate], the figures for the Ki at LaNAL and at LsNAL [3] were 160 µM and 400 µM, respectively. The Tm entry on LsNAL [2] is “protective effect was more evident at basic pHs”.
“N-acetylneuraminate lyase from Lactobacillus sakei 23K (from UniProt Q38V37 1-305) (enzyme)” returned a stoichiometry N in data set [4] of 4.

B1: LsNAL (Latilactobacillus sakei subsp. sakei 23K) (protein)
chain: MKDLTKYKGIIPAFYACYDEAGEISPERVRALTEYYIKKGVKGVYVNGSSGECIYQSVEDRKIVLENVMAVAKGKLTVIAHVACNNTKDSVELAKHAESLQVDAIAAIPPIYFKLPEYSIANYWNTISAGAPNTDFIIYNIPQLAGVSLTTELYAEMRRNPNVIGVKNSSMPVQDIQMFCAAGGKDHIVFNGPDEQFLGGRLMGAAAGIGGTYGAMPALFLKLNTLISELKLEEAKDLQYAIDEIIYKMCSGHGNMYAMIKEILRINEQLDLGSVREPLAPLNEADLEIAKESATMITTAIEKYC
notes: N-terminal His-tag (pET-28a), E. coli Rosetta 2; nanA gene 918 bp; homotetramer 140 kDa; EC 4.1.3.3
With B1, in data set [5], the Km turned out to be 12500 ± 200 µM, the turnover number (kcat) was 3.9 ± 0.1 s⁻¹ and the kcat/Km is 310 M⁻¹ s⁻¹.

B2: LaNAL (Limosilactobacillus antri DSM 16041; G210S/Y213G) (protein)
chain: MKDFSKYRGVFPAFYACYDDNGEVSPERVQQLTEYHLKKGVKGVYVNGSSGECIYLSVAERKMVLENVMKVAKGKLTVIAHVACNNTKDSVELAKHAESMGVDAIAAIPPIYFKLPDYSIAKYWNAISAAAPHTDFVIYNIPQLAGTALSASLYQQMLDNQQLIGVKNSSMPVQDIQIFKSLGGDDHLVFNGPDEQFISGRVMGAIGGISGTGGAMPDLFLKLNSFLKAGDLKNANKLQFMINEVIYKLAGGHGNMYALIKEVLRENEDLDIGSVRLPLEPLAPEDQQLVAEAIALINKTRAAFN
notes: N-terminal His-tag (pET-28a), E. coli Rosetta 2; nanA gene printed as 828 bp; homotetramer 140 kDa; EC 4.1.3.3
With B2, in data set [6], the Km worked out at 4300 ± 2000 µM, the kcat turned out to be 3 ± 0.3 s⁻¹ and the kcat/Km is 710 M⁻¹ s⁻¹.

B3: LaNAL (Limosilactobacillus antri DSM 16041) (protein)
chain: MKDFSKYRGVFPAFYACYDDNGEVSPERVQQLTEYHLKKGVKGVYVNGSSGECIYLSVAERKMVLENVMKVAKGKLTVIAHVACNNTKDSVELAKHAESMGVDAIAAIPPIYFKLPDYSIAKYWNAISAAAPHTDFVIYNIPQLAGTALSASLYQQMLDNQQLIGVKNSSMPVQDIQIFKSLGGDDHLVFNGPDEQFISGRVMGAIGGIGGTYGAMPDLFLKLNSFLKAGDLKNANKLQFMINEVIYKLAGGHGNMYALIKEVLRENEDLDIGSVRLPLEPLAPEDQQLVAEAIALINKTRAAFN
notes: as for B2
Turning to B3, in data set [6], the Km is 1100 ± 200 µM, the kcat amounted to 5.6 ± 0.1 s⁻¹ and the kcat/Km turned out to be 5100 M⁻¹ s⁻¹.

B4: LaNAL (Limosilactobacillus antri DSM 16041; P193Y) (protein)
chain: MKDFSKYRGVFPAFYACYDDNGEVSPERVQQLTEYHLKKGVKGVYVNGSSGECIYLSVAERKMVLENVMKVAKGKLTVIAHVACNNTKDSVELAKHAESMGVDAIAAIPPIYFKLPDYSIAKYWNAISAAAPHTDFVIYNIPQLAGTALSASLYQQMLDNQQLIGVKNSSMPVQDIQIFKSLGGDDHLVFNGYDEQFISGRVMGAIGGIGGTYGAMPDLFLKLNSFLKAGDLKNANKLQFMINEVIYKLAGGHGNMYALIKEVLRENEDLDIGSVRLPLEPLAPEDQQLVAEAIALINKTRAAFN
notes: as for B2
In the case of B4, in data set [6], the Km stood at 500 ± 10 µM, the kcat came to 0.99 ± 0.03 s⁻¹ and the kcat/Km was 1980 M⁻¹ s⁻¹.

As usually defined, the stoichiometry N is a count of units in the complex or per binding partner. Broadly, the Ki is a dissociation constant, usually derived from enzyme kinetics or from competition with a known ligand. Low values mean a stronger hold on the target, high ones a looser hold on the target. For orientation: Km means the concentration of substrate that gives half-maximal velocity. A word on the kcat: it is the maximal rate divided by the concentration of active sites. Usually kcat/Km stands for the second-order rate constant that governs catalysis at low substrate concentration.
